Biological target: T1, A/California/04/2009 (H1CA0409) recombinant HA (Influenza A virus, A/California/04/2009 …, UniProt C3W5S1, strain)
T1 construct: source: supplied by BEI Resources
Test: ELISA
Settings: both partners purified

B1: F10 scFv (wild type) (scFv, V domains shown)
VH: QVQLVQSGAEVKKPGSSVKVSCTSSEVTFSSFAISWVRQAPGQGLEWLGGISPMFGTPNYAQKFQGRVTITADQSTRTAYMDLRSLRSEDTAVYYCARSPSYICSGGTCVFDHWGQGTLVTVSS
VL: QPGLTQPPSVSKGLRQTATLTCTGNSNNVGNQGAAWLQQHQGHPPKLLSYRNNDRPSGISERFSASRSGNTASLTITGLQPEDEADYYCSTWDSSLSAVVFGGGTKLTVL
notes: also called F10 wt; construct #1; source: E. coli BL21 (DE3), purified (streptactin beads)
- binding result: binds
